Measured values from publication PMC9105526, “Escherichia coli tRNA 2-Selenouridine Synthase (SelU): Elucidation of Substrate Specificity to Understand the Role of S-Geranyl-tRNA in the Conversion of 2-Thio- into 2-Selenouridines in Bacterial tRN”.

T1: MBP-SelU (tRNA 2-selenouridine synthase) (Escherichia coli, UniProt P33667 1-364)
T1 sequence: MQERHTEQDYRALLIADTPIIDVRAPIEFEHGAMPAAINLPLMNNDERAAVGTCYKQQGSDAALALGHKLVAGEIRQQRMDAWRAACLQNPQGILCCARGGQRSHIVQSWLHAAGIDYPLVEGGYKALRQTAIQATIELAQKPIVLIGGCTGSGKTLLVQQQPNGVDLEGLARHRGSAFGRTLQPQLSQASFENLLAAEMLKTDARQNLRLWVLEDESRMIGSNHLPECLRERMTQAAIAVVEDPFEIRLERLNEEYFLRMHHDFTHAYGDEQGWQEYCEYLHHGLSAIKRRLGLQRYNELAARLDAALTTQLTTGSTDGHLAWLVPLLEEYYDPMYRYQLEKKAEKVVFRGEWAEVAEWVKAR

B1: Cy3-Se2U(34)-RNALys (structured_RNA)
RNA: GUUGACUUUUAAUCAAC
modifications: 2-selenouridine (Se2U) at nt 8 (tRNA position 34)
B2: Cy3-U(34)-RNALys (structured_RNA)
RNA: GUUGACUUUUAAUCAAC
B3: Cy3-geS2U(34)-RNALys (structured_RNA)
RNA: GUUGACUUUUAAUCAAC
modifications: S-geranyl-2-thiouridine (geS2U) at nt 8 (tRNA position 34)
B4: Cy3-S2U(34)-RNALys (structured_RNA)
RNA: GUUGACUUUUAAUCAAC
modifications: 2-thiouridine (S2U) at nt 8 (tRNA position 34)

Target: T1, MBP-SelU (tRNA 2-selenouridine synthase)
Assay: MST (initial fluorescence); 10 mM Mg2+; MST: 2x assay buffer 20 mM Tricine pH 7.2, 20 mM MgCl2, 0.1% Tween-20 mixed with RNA (about 10 mM Tricine, 10 mM MgCl2, 0.05% Tween-20 final if 1:1); Cy3-RNA 50-75 nM; 30 min at room temperature, measured at 22 C
Conditions: protein: recombinant, tags: N-terminal MBP (42 kDa, pMAL-c5x), label: 5'-Cy3, hairpin

Binder | Kd (7-nt loop) [µM] | Kd (7-nt loop CUUUUAA) [µM]
B1 | 27.1 ± 1.5 | –
B2 | – | 25.5 ± 1.8
B3 | 3.95 ± 0.4 | –
B4 | 22.4 ± 1.6 | –
